# Laboratory results from US7241873B2, “Recombinant anti-osteopontin antibody and use thereof” (Juridical Foundation the Chemo-sero-therapeutic Research …, priority 2001, dated 2007).
# Key:
# [1] = tested on: adhesion of TIG-7 cell to vitronectin (VN) or fibronectin (FN); experiment: TIG-7 cell adhesion to vitronectin or fibronectin; type: cell-based, human
# [2] = tested on: human peripheral monocyte migration toward thrombin-cleaved OPN; experiment: Migration of TNF-α-activated human peripheral monocyte toward thrombin-cleaved OPN (murine 2K1); type: cell-based; details: for Mean migrating cell counts per 1 mm^3 (monocyte): thrombin-cleaved OPN 10 μg/mL
# Description: (§1) By the Ficoll method, a monocyte fraction and a neutrophil fraction were separated from normal human peripheral blood (P. M. Daftarian et al., (1996): Journal of Immunology, 157, 12–20). The intermediate layer between Ficoll and serum was collected and cultured in a flask at 37° C. for one hour. The resulting attached cell was used as monocyte. To the erythrocyte layer remaining after collection of the monocyte fraction was added a 5-fold volume of 3% dextran-PBS to aggregate erythrocyte, followed by centrifugation at 150×g and 4° C. for 5 minutes.
# (§2) The aggregated erythrocyte was precipitated, while in the resulting supernatant, neutrophil existed in suspended state. Then, the fraction was centrifuged at 500×g and ambient temperature for 20 minutes, to recover neutrophil. The monocyte and neutrophil as recovered in such manner were cultured overnight with human TNF-α (20 ng/mL) for activation. Then, the resulting activated monocyte and neutrophil were used for migration experiments.
# (§3) The migration experiments were done, using a 48-well micro chemotaxis chamber (manufactured by Neuro Probe Inc.). After various concentrations of the murine 2K1 antibody were added to the thrombin-cleaved OPN and were then preliminarily left to stand at 37° C. for 15 minutes, the mixtures were added to the lower chamber (to a final human OPN concentration of 10 μg/mL). Placing thereon a polycarbonate filter (pore size of 5 μm), further, a cell suspension (2×10^6 cells/mL) of 50 μL was added to the upper chamber.
# (§4) After culturing in the presence of 5% CO2 at 37° C. for 2 hours, the polycarbonate filter was removed to discard the cells on the upper surface of the filter; subsequently, the cells infiltrating to the back face of the filter were stained with Diff-Quick (manufactured by Baxter International Inc.). The stained cells were counted at a magnification×40. The results are shown as mean cell counts (cells/mm^3)±SD in 6 wells.
# [3] = target: T1, human OPN (GST-OPN-a, GST-OPN-b, GST-OPN-c, GST-N half, GST-C half, CHO/OPN-a, thrombin-cleaved OPN) (Homo sapiens, UniProt P10451); experiment: Western blotting of murine monoclonal antibodies with OPN and thrombin digestion products; type: binding
# T1 construct: cDNAs encoding the full-length human OPN-a and OPN-b individually including the respective signal peptide regions; made in house; host or cells: Escherichia coli JM109
# Description: (§5) The binding potencies of the murine monoclonal antibodies 2K1 (referred to as “murine 2K1 antibody” hereinafter) and 4C1 recovered in the Example 2 to OPN and the thrombin digestion products thereof were tested by Western blotting method. […] Further, these monoclonal antibodies were not only bound to the recombinant OPNs of non-glycosylated type as generated in Escherichia coli but also reacted with the CHO/OPN-a protein of sugar-chain-bound type and the thrombin digestion products thereof (referred to as “thrombin-cleaved OPN” hereinafter).
# [4] = tested on: human OPN (GST-OPN-a, GST-OPN-b, GST-OPN-c, GST-N half, GST-C half, CHO/OPN-a, thrombin-cleaved OPN); experiment: as above; type: binding
# Description: as §5
# [5] = tested on: adhesion of α9-transformed SW480 cell to nOPN; experiment: Adhesion of α9-transformed SW480 cell to nOPN; type: cell-based, human; details: FIG. 2B
# Description: (§6) It was examined by the following method as to whether or not the murine monoclonal antibodies inhibited cell adhesion to OPN. First, a 96-well plate was precoated with various concentrations of the CHO/OPN-a at 4° C. overnight, which was then treated with 0.5% BSA in PBS under conditions of 37° C. for 10 minutes, so as to block non-specific adhesion. A human fibroblast TIG-7 or SW480 cell transformed with the cDNA of an integrin subunit α9 (referred to as “α9-transformed SW480 cell” hereinafter) was suspended in D-MEM containing 0.25% BSA; 200 μl of the resulting cell suspension (at a cell concentration of 5×10^4 cells/well) was injected in a 96-well plate precoated with the CHO/OPN-a or nOPN, in the presence or absence of various concentrations of the monoclonal antibodies or synthetic peptides, for incubation at 37° C. for one hour.
# (§7) The culture medium was discarded from the plate, and all the wells were rinsed twice with D-MEM containing 0.25% BSA. The adherent cells were fixed and stained with 0.5% crystal violet in 20% methanol for 30 minutes.
# All the wells were rinsed three times with water, and the adherent cells were then solubilized into 20% acetic acid. The resulting supernatant recovered from each well was analyzed with an immunoreader, to measure the absorbance at 590 nm to determine the relative count of the cells adhering to the well. […]
# [6] = tested on: adhesion of human fibroblast TIG-7 to CHO/OPN-a; experiment: Inhibition of TIG-7 cell adhesion to OPN; type: cell-based
# Description: as §6, §7
# All the wells were rinsed three times with water, and the adherent cells were then solubilized into 20% acetic acid. The resulting supernatant recovered from each well was analyzed with an immunoreader, to measure the absorbance at 590 nm to determine the relative count of the cells adhering to the well. All the assays were done in a triplicate fashion, and at least three independent experiments were performed. The values shown represent mean at three independent experiments.
# [7] = tested on: human peripheral neutrophil migration toward thrombin-cleaved OPN; experiment: Migration of TNF-α-activated human peripheral neutrophil toward thrombin-cleaved OPN; type: cell-based; details: for Mean migrating cell counts per 1 mm^3 (neutrophil): thrombin-cleaved OPN 10 μg/mL
# Description: as §1, §2, §3, §4
# [8] = tested on: adhesion of α9-transformed SW480 cell to vitronectin; experiment: Adhesion of α9-transformed SW480 cell to vitronectin; type: cell-based, human; details: FIG. 2B
# [9] = tested on: OPN-induced migration of human monocyte U937; experiment: OPN-induced U937 cell migration test (ChemoTx); type: cell-based; details: U937, OPNs 10 μg/ml, antibody 50 μg/ml, FIG. 3b
# Description: A cell migration test using the U937 cell was performed by using a system ChemoTx101-8 (Neuro Probe Inc.). The cell was adjusted to 2×10^6 cells/ml with D-MEM containing 0.1% BSA, which was then applied to the upper layer on a filter (with a pore size of 8 μm), while the OPN protein was added to the lower layer.
# The ChemoTx plate was left to stand in the presence of 5% CO2 at 37° C. for 4 hours. After the plate was left to stand, the filter was fixed with methanol, and was then stained with hematoxylin and eosin (H-E). The number of the cells migrating to the back face of the filter was counted with a microscope (magnification×400). The test was done in a triplicate manner, and the mean was used as data.
# T1 sequence (P10451 17-168): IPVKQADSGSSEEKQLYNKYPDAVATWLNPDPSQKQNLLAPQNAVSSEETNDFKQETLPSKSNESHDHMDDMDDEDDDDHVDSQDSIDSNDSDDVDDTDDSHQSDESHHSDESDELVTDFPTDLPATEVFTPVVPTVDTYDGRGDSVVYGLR
molecule,measurement,setting,value
"murine 2K1 antibody: murine monoclonal antibody from mice immunized with Peptide 1 (…) of human OPN; hybridoma FERM BP-7883 (antibody, V domains shown, murine monoclonal antibody from mice immunized with Peptide 1 (…) of human OPN; hybridoma FERM BP-7883) VH: QVQLQQSGAELVRPGASVKLSCKALGYTFTDYEMHWVKQTPVHGLEWIGAIHPGRGGTAYNQKFKGKATLTADKSSSTAYMELSSLTSEDSAVYYCTRITGYFDVWGAGTTVTVSS VL: DVLMTQTPLSLPVSLGDQASISCRSSQSIVHSNGNTYLEWYLQKPGQSPKLLIYKVSNRFSGVPDRFSGSGSGTDFTLKISRVEAEDLGVYYCFQGSHVPLTFGAGTKLELKR",inhibition of adhesion of TIG-7 cell to vitronectin (VN) or fibronectin (FN),[1],never inhibit
same,inhibition of migration of TNF-α-activated human peripheral monocyte toward thrombin-cleaved OPN,[2],inhibited
same,Mean migrating cell counts per 1 mm^3 (monocyte),[2]; antibody 0.4 μg/mL,258.0 ± 71.9 counts per 1 mm^3
same,Mean migrating cell counts per 1 mm^3 (monocyte),[2]; antibody 2 μg/mL,256.7 ± 66.5 counts per 1 mm^3
same,Mean migrating cell counts per 1 mm^3 (monocyte),[2]; antibody 10 μg/mL,160.0 ± 56.9 counts per 1 mm^3
same,Mean migrating cell counts per 1 mm^3 (monocyte),[2]; antibody 50 μg/mL,75.0 ± 55.4 counts per 1 mm^3
same,reactivity with GST-N half,[3],reacted
same,"reactivity with GST-OPN-a, GST-OPN-b, GST-OPN-c",[4],reacted
same,inhibition of adhesion between SW480 cell and nOPN,[5],inhibited
same,"effect on the inhibition of cell adhesion, comparison and concentration dependence","[6]; TIG-7, FIG. 1C",comparative to the effect exerted by mAb53 and is concentration-dependent
same,inhibition of cell adhesion to OPN,"[6]; antibody 200 μg/ml, TIG-7, FIG. 1B",apparently inhibited
same,inhibition of migration of TNF-α-activated human peripheral neutrophil toward thrombin-cleaved OPN,[7],inhibited
same,Mean migrating cell counts per 1 mm^3 (neutrophil),[7]; antibody 0.4 μg/mL,566.7 ± 60.2 counts per 1 mm^3
same,Mean migrating cell counts per 1 mm^3 (neutrophil),[7]; antibody 2 μg/mL,550.0 ± 49.0 counts per 1 mm^3
same,Mean migrating cell counts per 1 mm^3 (neutrophil),[7]; antibody 10 μg/mL,450.0 ± 90.8 counts per 1 mm^3
same,Mean migrating cell counts per 1 mm^3 (neutrophil),[7]; antibody 50 μg/mL,426.7 ± 30.8 counts per 1 mm^3
same,inhibition of adhesion between α9-transformed SW480 cell and vitronectin,[8],never inhibited
same,"inhibition of monocyte migration induced by CHO/OPN-a, thrombin-cleaved OPN and GST-N half",[9],apparently inhibits
